What all share (test): peptide binding ELISA: GST-PDZ on plate, biotin-peptide/streptavidin-alkaline phosphatase complex, colorimetric
For orientation: An ELISA detects its analyte on a solid surface through an enzyme-linked reagent.

In test [1] the target is T1, AF6 PDZ binding peptide biotin-SGDDGDDPFLQYEFYV-COOH (SMILES …).
T1 peptide: Biotin-SGDDGDDPFLQYEFYV-OH
From the text:
(§1) cDNAs encoding each of the MMSC1 PDZ domains (amino acid residues identified in Table 1), and any desired control proteins, were generated by PCR and subcloned as glutathione S-transferase (GST) fusions in pGEX vectors (Pharmacia). After sequencing to confirm expression construct integrity, the resulting clones were expressed in E. coli and the desired fusion proteins isolated with glutathione-agarose and recovered with glutathione elution. These fusion proteins or control proteins were then adsorbed to different wells of a 96-well ELISA plate and remaining sites blocked with BSA. Synthetic commercially synthesized peptides encoding the desired PDZ-binding domain (i.e., the 16 C-terminal amino acids of MMAC1, or the C-terminal peptide sequences of interacting proteins identified by the approach of Example 2, or the C-terminal peptide sequences identified by the approach of Example 3), or a control peptide, and biotinylated at the amino-terminus, were pre-bound to streptavidin-alkaline phosphatase in a 4:1 molar ratio. The biotinylated peptide streptavidin-alkaline phosphatase complexes were then blocked with free biotin. These pre-bound peptide streptavidin-alkaline phosphatase complexes were then incubated with the immobilized PDZ domains in wash buffer containing PBS, BSA and triton-X100. Unbound material was removed with repeated washes. Bound peptide/streptavidin-alkaline phosphatase complex was then quantitated by a colorimetric phosphatase assay read on a 96-well plate reader.

The target in test [2] is T2, MMAC1.388-403 biotin-ENEPFDEDQHTQITKV-COOH (SMILES …).
T2 construct: also called the 16 C-terminal amino acids of MMAC1
T2 peptide: Biotin-ENEPFDEDQHTQITKV-OH
Excerpt: as §1

Test [3] concerns the target T3, SH3 binding peptide biotin-SGSGILAPPVPPRNTR-COOH (SMILES …).
T3 peptide: Biotin-SGSGILAPPVPPRNTR-OH
Excerpt: as §1

* marks the point of attachment. Biotin = O=C1N[C@H]2[C@H](CS[C@H]2CCCCC(=O)*)N1

B1: GST fusion of MMSC1 PDZ domain 6 (amino acids 1067-1158) (other)
chain: RIVEIFREPNVSLGISIVGGQTVIKRLKNGEELKGIFIKQVLEDSPAGKTNALKTGDKILEVSGVDLQNASHSEAVEAIKNAGNPVVFIVQS
notes: Expressed in E. coli, purified on glutathione-agarose, adsorbed to the ELISA plate; GST is placed N-terminal as in pGEX vectors; also called MMSc1 PDZ 6; PDZ domain number 6; not shown: glutathione S-transferase (GST) encoded by pGEX vectors (Pharmacia)
Take B1: the A405 in test [1] was determined as 1.46 A405; in test [2], 0.23 A405; in test [3] it was 0 A405.

B2: GST fusion of MMSC1 PDZ domain 9 (amino acids 1532-1613) (other)
chain: FPVDLQKKAGRGLGLSIVGKRNGSGVFISDIVKGGAADLDGRLIQGDQILSVNGEDMRNASQETVATILKCAQGLVQLEIGR
notes: Expressed in E. coli, purified on glutathione-agarose, adsorbed to the ELISA plate; GST is placed N-terminal as in pGEX vectors; also called MMSc1 PDZ 9; PDZ domain number 9; not shown: glutathione S-transferase (GST) encoded by pGEX vectors (Pharmacia)
As to B2, the A405 amounted to 2.41 A405 in test [1], 0.1 A405 in test [2] and 0.02 A405 in test [3].

B3: GST fusion of MMSC1 PDZ domain 8 (amino acids 1436-1518) (other)
chain: MIIEISKGRSGLGLSIVGGKDTPLNAIVIHEVYEEGAAARDGRLWAGDQILEVNGVDLRNSSHEEAITALRQTPQKVRLVVYR
notes: Expressed in E. coli, purified on glutathione-agarose, adsorbed to the ELISA plate; GST is placed N-terminal as in pGEX vectors; also called MMSc1 PDZ 8; PDZ domain number 8; not shown: glutathione S-transferase (GST) encoded by pGEX vectors (Pharmacia)
As for B3, the A405 came to 0.29 A405 in test [1], 0.3 A405 in test [2] and 0 A405 in test [3].

B4: GST fusion of MMSC1 PDZ domain 3 (amino acids 364-451) (other)
chain: YNVELVRKDGQSLGIRIVGYVGTSHTGEASGIYVKSVIPGSAAYHNGHIQVNDKIVAVDGVNIQGFANHDVVEVLRNAGQVVHLTLVR
notes: Expressed in E. coli, purified on glutathione-agarose, adsorbed to the ELISA plate; GST is placed N-terminal as in pGEX vectors; also called MMSc1 PDZ 3; PDZ domain number 3; not shown: glutathione S-transferase (GST) encoded by pGEX vectors (Pharmacia)
With B4, the values for the A405 in test [1], in test [2] and in test [3] were 2.24 A405, 0.01 A405 and 0.01 A405, respectively.

B5: GST fusion of MMSC1 PDZ domain 7 (amino acids 1238-1320) (other)
chain: HIIELEKDKNGLGLSLAGNKDRSRMSIFVVGINPEGPAAADGRMHIGDELLEINNQILYGRSHQNASAIIKTAPSKVKLVFIR
notes: Expressed in E. coli, purified on glutathione-agarose, adsorbed to the ELISA plate; GST is placed N-terminal as in pGEX vectors; also called MMSc1 PDZ 7; PDZ domain number 7; not shown: glutathione S-transferase (GST) encoded by pGEX vectors (Pharmacia)
In the case of B5, the A405 in test [1] was determined as 1.05 A405; in test [2], 1.25 A405; in test [3], 0.01 A405.

B6: GST fusion of MMSC1 PDZ domain 5 (amino acids 685-771) (other)
chain: KIVELVKDCKGLGFSILDYQDPLDPTRSVIVIRSLVADGVAERSGGLLPGDRLVSVNEYCLDNTSLAEAVEILKAVPPGLVHLGICK
notes: Expressed in E. coli, purified on glutathione-agarose, adsorbed to the ELISA plate; GST is placed N-terminal as in pGEX vectors; also called MMSc1 PDZ 5; PDZ domain number 5; not shown: glutathione S-transferase (GST) encoded by pGEX vectors (Pharmacia)
Consider B6, for which the A405 in test [1] stood at 0.02 A405; in test [2], 0 A405; in test [3], 0 A405.
